Experiment [1] has as its target EBV LMP2A epitope … presented by HLA-A*0201 (human). The experiment can be described thus: cell-based or functional assay.
Experiment [2] has as its target HCMV pp65 epitope … presented by HLA-A*0201 (human). The experiment can be described thus: cell-based or functional assay.

Consider “TCR that recognizes peptide … presented by A*0201 (PDB #3REV)”, for which, in experiment [1], the luciferase induction relative to uninfected controls, short cassette design 9AA amounted to 12; the luciferase induction relative to uninfected controls, short cassette design 17AA came out at 10.3; the luciferase induction relative to uninfected controls, short cassette design 25AA was 14.6; the luciferase induction relative to uninfected controls, short cassette design DPP amounted to 1.1. For the same substance, in experiment [1], the luciferase induction relative to uninfected controls, short cassette design RR is 8.5.

As to “TCR that recognizes peptide … presented by A*0201 (PDB #5D2N)”, in experiment [2], the luciferase induction relative to uninfected controls, short cassette design 9AA came out at 33.6; the luciferase induction relative to uninfected controls, short cassette design 17AA was 42.8; the luciferase induction relative to uninfected controls, short cassette design 25AA was 42.3; the luciferase induction relative to uninfected controls, short cassette design DPP came to 0.9. In experiment [2], this substance displayed a luciferase induction relative to uninfected controls, short cassette design RR of 21.7; a luciferase induction, in vitro T cell activation assay, short cassette design AAY of 24.5; a luciferase induction, in vitro T cell activation assay, targeting-sequence short cassette design A of 32.5; a luciferase induction, in vitro T cell activation assay, targeting-sequence short cassette design B of 31.8. In experiment [2], this substance showed a luciferase induction, in vitro T cell activation assay, targeting-sequence short cassette design C of 29.1; a luciferase induction, in vitro T cell activation assay, targeting-sequence short cassette design D of 29.1; a luciferase induction, in vitro T cell activation assay, targeting-sequence short cassette design E of 28.4; a luciferase induction, in vitro T cell activation assay, targeting-sequence short cassette design F of 20.4. For the same substance, in experiment [2], the luciferase induction, in vitro T cell activation assay, targeting-sequence short cassette design G came out at 35; the luciferase induction, in vitro T cell activation assay, targeting-sequence short cassette design H stood at 30.3; the luciferase induction, in vitro T cell activation assay, targeting-sequence short cassette design I amounted to 22.5; the luciferase induction, in vitro T cell activation assay, targeting-sequence short cassette design J came out at 38.1.

For the origin of these results see patent publication US20220125919A1.
